Data reported in patent US20250313626A1 (HARBOUR BIOMED SHANGHAI, published 2025).
Where a chain is given by its changes, count along the chain named. Names may count otherwise. Where two headings read alike, the source gives them in different places.

T1: human CD200R1a protein (soluble recombinant) (human, UniProt Q8TD46 29-265)
T1 construct: Soluble protein used in BLI; also called human CD200R1 isoform a; not shown: His tag implied by capture on anti-Penta-HIS biosensors
T1 sequence: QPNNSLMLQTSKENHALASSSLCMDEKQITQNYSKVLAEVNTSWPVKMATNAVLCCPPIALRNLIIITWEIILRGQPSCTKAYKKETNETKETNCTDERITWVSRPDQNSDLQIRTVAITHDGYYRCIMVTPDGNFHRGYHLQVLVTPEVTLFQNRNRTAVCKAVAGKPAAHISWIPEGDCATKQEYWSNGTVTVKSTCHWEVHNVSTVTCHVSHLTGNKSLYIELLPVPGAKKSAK

T2: human CD200R1 isoform a on CHOK1 cells (CHOK1/hCD200R1a) (human, UniProt Q8TD46 25-348)
T2 construct: also called CHOK1/CD200R1a
T2 sequence: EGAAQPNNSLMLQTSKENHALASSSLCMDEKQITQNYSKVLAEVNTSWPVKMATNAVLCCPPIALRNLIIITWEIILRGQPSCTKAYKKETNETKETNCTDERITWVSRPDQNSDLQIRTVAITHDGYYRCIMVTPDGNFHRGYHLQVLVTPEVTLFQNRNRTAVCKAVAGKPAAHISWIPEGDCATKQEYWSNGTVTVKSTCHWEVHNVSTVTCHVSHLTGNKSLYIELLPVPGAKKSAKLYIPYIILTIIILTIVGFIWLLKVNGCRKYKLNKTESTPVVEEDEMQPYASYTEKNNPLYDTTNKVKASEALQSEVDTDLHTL

T3: CD200R1a on PathHunter Jurkat CD200R1a signaling cells (Eurofins DiscoverX, 93-1136C19) (human, UniProt Q8TD46 25-348)
T3 sequence: T2 sequence

T4: Cynomolgus macaques CD200R1 isoform a on CHOK1 cells (CHOK1/cynoCD200R1a) (Cynomolgus macaques)
T4 chain: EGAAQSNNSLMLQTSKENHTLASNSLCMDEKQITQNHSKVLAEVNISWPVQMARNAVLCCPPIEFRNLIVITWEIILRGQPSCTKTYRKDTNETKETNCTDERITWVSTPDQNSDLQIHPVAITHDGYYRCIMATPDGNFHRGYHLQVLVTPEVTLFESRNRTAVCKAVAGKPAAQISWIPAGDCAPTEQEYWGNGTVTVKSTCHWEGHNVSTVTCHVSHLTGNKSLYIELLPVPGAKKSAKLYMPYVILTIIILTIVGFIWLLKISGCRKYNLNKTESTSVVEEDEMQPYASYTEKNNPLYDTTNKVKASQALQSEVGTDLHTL

B1: PR006207 (antibody, human IgG1, kappa, L234A L235A, V domains shown)
VH: QVQLVQSGAEVKKPGASVKVSCKASGFSFSSGYYMAWVRQAPGQGLEWMGLIGVGSGSLWYAQKFQGRVTMTRDTSTSTVYMELSSLRSEDTAVYYCARHFALSDPFNLWGQGTLVTVSS
VL: EIVLTQSPDFQSVTPKEKVTITCQASESIDSYLLWYQQKPDQSPKLLIKQASTLASGVPSRFSGSGSGTDFTLTINSLEAEDAATYYCQNYYDISSNDFGGGTKVEIKR
notes: also called recombinant antibody of I-4P
B2: Fc-tagged human CD200 protein (Fc fusion)
chain: QVQVVTQDEREQLYTPASLKCSLQNAQEALIVTWQKKKAVSPENMVTFSENHGVVIQPAYKDKINITQLGLQNSTITFWNITLEDEGCYMCLFNTFGFGKISGTACLTVYVQPIVSLHYKFSEDHLNITCSATARPAPMVFWKVPRSGIENSTVTLSHPNGTTSVTSILHIKDPKNQVGKEVICQVLHLGTVTDFKQTVNKG
notes: also called hCD200; not shown: Fc tag
B3: Cyno CD200R1a-His (receptor)
chain: EGAAQSNNSLMLQTSKENHTLASNSLCMDEKQITQNHSKVLAEVNISWPVQMARNAVLCCPPIEFRNLIVITWEIILRGQPSCTKTYRKDTNETKETNCTDERITWVSTPDQNSDLQIHPVAITHDGYYRCIMATPDGNFHRGYHLQVLVTPEVTLFESRNRTAVCKAVAGKPAAQISWIPAGDCAPTEQEYWGNGTVTVKSTCHWEGHNVSTVTCHVSHLTGNKSLYIELLPVPGAKKSAK
notes: Soluble protein used in BLI; also called Cynomolgus macaques CD200R1a recombinant protein; not shown: His tag
B4: PR006895 (antibody, human IgG1, kappa)
heavy: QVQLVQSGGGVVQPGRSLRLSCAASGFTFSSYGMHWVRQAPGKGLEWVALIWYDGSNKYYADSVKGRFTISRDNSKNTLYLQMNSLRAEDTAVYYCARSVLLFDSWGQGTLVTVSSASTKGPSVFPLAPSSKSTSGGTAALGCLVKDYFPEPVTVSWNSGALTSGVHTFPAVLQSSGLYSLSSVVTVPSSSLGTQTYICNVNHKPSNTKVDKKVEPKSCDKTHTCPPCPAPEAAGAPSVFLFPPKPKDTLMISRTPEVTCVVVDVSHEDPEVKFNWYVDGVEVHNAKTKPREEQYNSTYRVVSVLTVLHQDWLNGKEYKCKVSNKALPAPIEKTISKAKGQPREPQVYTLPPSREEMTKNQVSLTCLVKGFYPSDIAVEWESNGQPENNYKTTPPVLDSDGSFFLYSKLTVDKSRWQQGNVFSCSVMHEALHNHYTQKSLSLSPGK
light: DIQMTQSPPSLSASVGDRVTITCRASQSISSYLNWFQQKAGKAPKLLISATSNLQSGVPSRFSGSGSGTDFTLTISSLQPEDLATYYCQQSYSSPYTFGQGTKVEIKRTVAAPSVFIFPPSDEQLKSGTASVVCLLNNFYPREAKVQWKVDNALQSGNSQESVTEQDSKDSTYSLSSTLTLSKADYEKHKVYACEVTHQGLSSPVTKSFNRGEC
notes: Fc variant of PR006480: human IgG1 with L234A, L235A, G237A (EU)
B5: PR007442 (antibody, human IgG1, kappa)
heavy: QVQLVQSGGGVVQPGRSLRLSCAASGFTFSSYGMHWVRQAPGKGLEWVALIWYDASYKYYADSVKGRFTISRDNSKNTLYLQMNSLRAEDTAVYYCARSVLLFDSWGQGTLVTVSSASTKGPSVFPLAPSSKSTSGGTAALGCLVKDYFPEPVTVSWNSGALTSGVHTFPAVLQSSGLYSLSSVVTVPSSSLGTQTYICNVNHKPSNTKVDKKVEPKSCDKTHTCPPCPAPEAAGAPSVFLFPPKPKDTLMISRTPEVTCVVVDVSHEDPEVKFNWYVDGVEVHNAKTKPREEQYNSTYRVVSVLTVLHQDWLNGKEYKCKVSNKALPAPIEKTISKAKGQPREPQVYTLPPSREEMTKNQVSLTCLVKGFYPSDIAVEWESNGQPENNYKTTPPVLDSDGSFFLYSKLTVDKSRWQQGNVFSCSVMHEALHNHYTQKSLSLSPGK
light: B4 light with S91T, Y92L
notes: PTM variant of PR006895 (human IgG1)

Legend:
[1] = target: T1, human CD200R1a protein (soluble …); assay: BLI in-tandem competition on His-captured human CD200R1a; row = 1st Ab (400 nM); competitor (2nd Ab) PR007223
Method: (§1) To determine if the anti-CD200R1 antibodies bind to human CD200R1a on different or approximate binding epitopes, epitope competition experiments for the anti-CD200R1 antibodies were performed by the ForteBlio Octet® RED96e platform. […] The in-tandem competition assay format was applied, and it contained two association steps. Firstly, the antigen-loaded biosensors bound to each antibody (i.e., First antibody, 1st Ab) at a saturating concentration of 400 nM for 300 seconds to reach equilibrium and then secondly bound to the competing antibodies (i.e., Second antibody, 2nd Ab) of 400 nM for 300 seconds. The second binding signals are recorded as the 100% signal of each antibody when the first antibodies are replaced by kinetic buffer. All the binding data were analyzed using ForteBlio Data Analysis 11.0 software. The inhibition rate was calculated by the following formula: […]

[2] = target: T1, human CD200R1a protein (soluble …); assay: BLI in-tandem competition on His-captured human CD200R1a; row = 1st Ab (400 nM); competitor (2nd Ab) PR007973
Method: as §1

[3] = target: T1, human CD200R1a protein (soluble …); assay: BLI in-tandem competition on His-captured human CD200R1a; row = 1st Ab (400 nM); competitor (2nd Ab) PR007221
Method: as §1

[4] = target: T1, human CD200R1a protein (soluble …); assay: BLI in-tandem competition on His-captured human CD200R1a; row = 1st Ab (400 nM); competitor (2nd Ab) PR006207
Method: as §1

[5] = target: T1, human CD200R1a protein (soluble …); assay: BLI (Octet), Fc-tagged hCD200 captured on anti-human Fc sensor, soluble CD200R1a as analyte, 1:1 fit
[6] = target: B2; assay: as above
[7] = target: T2, human CD200R1 isoform a on CHOK1 cells …; assay: flow cytometry blocking assay: biotin-labelled human CD200 binding to CHOK1/hCD200R1a cells; y axis Inhibition %
Method: (§2) In brief, CHOK1/hCD200R1a cells were digested and resuspended in 2% BSA in PBS. […] The cells were placed at 4° C. and incubated for 1 hour in the dark. […] 100 μL/well of pre-cooled PBS containing 2% BSA was added to rinse the cells twice, centrifugation was performed at 500 g, 4° C. for 5 minutes, and the supernatant was discarded. Fluorescent secondary antibody (PE Streptavidin, BD, Cat #: 554061, 1:200) was added at 100 μL/well, and incubation was performed at 4° C. for 30 minutes in the dark. The cells were washed twice with 200 μL/well of pre-cooled PBS, and were centrifuged at 500 g, 4° C. for 5 minutes, and the supernatant was discarded. Finally, 200 μL/well of pre-cooled PBS was used to resuspend the cells, and the fluorescence signal values were read using ACEA Novocyte 3000 flow cytometer. IC50 values were calculated.

[8] = target: T2, human CD200R1 isoform a on CHOK1 cells …; assay: flow cytometry, CHOK1/hCD200R1a cells (FITC-Mean); table beside the curves, head without unit, x axis Log [Ab] (nM)
[9] = target: T2, human CD200R1 isoform a on CHOK1 cells …; assay: flow cytometry blocking assay: antibody titrated against biotin-labelled human CD200 binding to CHOK1/hCD200R1a cells; head prints EC50 without unit, x axis Log [Ab] (nM), y axis Inhibition %
Method: as §2

[10] = target: T3, CD200R1a on PathHunter Jurkat CD200R1a …; assay: cell-based or functional assay
[11] = target: T4, Cynomolgus macaques CD200R1 isoform a …; assay: flow cytometry, CHOK1/cynoCD200R1a cells (APC-A Mean); table beside the curves
[12] = target: T2, human CD200R1 isoform a on CHOK1 cells …; assay: flow cytometry, CHOK1/hCD200R1a cells (FITC-Mean); table beside the curves
Method: This example is intended to investigate the in vitro binding activity of human anti-CD200R1 monoclonal antibodies to human/Cynomolgus macaques CD200R1a expressed on the surface of cells. The anti-CD200R1 antibodies were produced as described in Example 3.4 and the binding experiments at the cell level were performed using CHOK1/hCD200R1a and CHOK1-cynoCD200R1a.
Briefly, CHOK1/hCD200R1a cells and CHOK1-cynoCD200R1a cells were digested, and collected, and then were resuspended in PBS containing 2% BSA, respectively. The cell density was adjusted to 1×10⁶ cells/mL. The cells were seeded in a 96-well V-bottom plate (Corning, #3894) at 100 μL/well, followed by the addition of test antibodies and reference antibodies in a series diluted concentration, each at 100 μL/well. The cells were incubated away from light at 4° C. for 1 h. Thereafter, the cells in each well were rinsed twice with 100 μL of pre-cooled PBS containing 2% BSA, and centrifuged at 500 g at 4° C. for 5 min, and then the supernatant was discarded. 100 μL of fluorescent secondary antibody (Alexa Fluor 488-conjugated AffiniPure Goat Anti-Human IgG, Fcγ Fragment Specific, Jackson, #109-545-098, diluted in a 1:1000 ratio) was added in each well, and the plate was incubated away from light at 4° C. for 1 h. The cells in each well were rinsed twice with 100 μL of pre-cooled PBS containing 2% BSA, and centrifuged at 500 g at 4° C. for 5 min, and then the supernatant was discarded. Finally, the cells in each well were resuspended in 200 μL of pre-cooled PBS containing 2% BSA, and the fluorescence signal values were read using a BD CantoII flow cytometer.

[13] = target: T3, CD200R1a on PathHunter Jurkat CD200R1a …; assay: cell-based or functional assay; remark: listed apart in the source

| Binder | Blocking(Max) [7] [%] | EC50 [8] [nM] | EC50 [9] [nM] | IC50 of the inhibition of CD200-induced PathHunter Jurkat CD200R1a luminescence (CHOK1/hCD200 cells as CD200 source) [10] [nM] | EC50 [11] [nM] | MFI (MAX) [11] | MFI(Max) [12] | other results |
| --- | --- | --- | --- | --- | --- | --- | --- | --- |
| B1 | – | – | – | – | – | – | – | Inhibition ratio (%) [1]: -38.6%; Inhibition ratio (%) [2]: -39.9%; Inhibition ratio (%) [3]: -36.2%; Inhibition ratio (%) [4]: 97.6% |
| B2 | – | – | – | – | – | – | – | Kd [5]: 77.1 nM; koff [5]: 0.0177 s⁻¹; kon [5]: 230000 M⁻¹ s⁻¹ |
| B3 | – | – | – | – | – | – | – | Kd [6]: 197 nM; koff [6]: 0.0316 s⁻¹; kon [6]: 161000 M⁻¹ s⁻¹ |
| B4 | 49.8 | 0.172 | 0.339 | 0.988 | 20.5 | 33400 | 8410 | IC50 of the inhibition of CD200-induced PathHunter Jurkat CD200R1a luminescence (CHOK1/hCD200 cells as CD200 source) [13]: 0.886 nM |
| B5 | 80 | 0.108 | 0.19 | 0.844 | 6.86 | 50100 | 8850 | – |
